± gives the uncertainty stated by the source.
Test: self-splicing fitness, log relative to wild type (ln ratio); higher = more splicing; Tetrahymena group I intron in knt gene, E. coli kanamycin selection, DiMSum; sequences stand for … in CUCUCU…GGAGGGAAAAGUUAUCAGGCAUGCACCUGGUAGCUAGUCUUUAAACCAAUAGAUUGCAUCGGUUUAAAAGGCAAGACCGUCAAAUUGCGGGAAAGGGGUCAACAGCCGUUCAGUACCAAGUCUCAGGGGAAACUUUGAGAUGGCCUUGCAAAGGGUAUGGUAAUAAGCUGACGGACAUGGUCCUAACCACGCAGCCAAGUCCUAAGUCAACAGAUCUUCUGUUGAUAUGGAUGCAGUUCACAGACUAAAUGUCGGUCGGGGAAGAUGUAUUCUUCUCAUAAGAUAUAGUCGGACCUCUCCUUAAUGGGAGCUAGCGGAUGAAGUGAUGCAACACUGGAGCCGCUGGGAACUAAUUUGUAUGCGAAAGUAUAUUGAUUAGUUUUGGAGUACUCGUGGUCG
Outline: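 Pooled colonies went to amplicon sequencing on an Illumina HiSeq 2500 after six replicate transformations. The plates were LB agar with 100 μg/mL carbenicillin, 50 μM IPTG and 0.2% rhamnose, with or without 25 μg/mL kanamycin, incubated overnight at 37°C or 30°C. The E. coli BL21(DE3) library had all eight P1ex-region intron nucleotides randomised, the intron placed in the knt kanamycin-resistance gene on pET-22b(+). DiMSum fitness is the error-weighted combination of replicate fold changes, kanamycin against none, normalised to wild type.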

Sequence | self-splicing fitness (ln) (30 °C) | self-splicing fitness (ln) (37 °C)
UCGAAGCAAUAUUACGCGAG | -1.47 ± 0.074 | -0.905 ± 0.1
UCGAAGCAAUAUUACGCGGC | -3.35 ± 0.32 | -2.87 ± 0.36
UCGAAGCAAUAUUACGGAAA | -1.95 ± 0.49 | -0.855 ± 0.25
UCGAAGCAAUAUUACGGUCA | -1.83 ± 0.11 | -0.525 ± 0.12
UCGAAGCAAUAUUACGGUGU | -2.05 ± 0.094 | -1.62 ± 0.15
UCGAAGCAAUAUUACGUAGA | -1.81 ± 0.14 | -0.562 ± 0.15
UCGAAGCAAUAUUACGUCAG | -0.27 ± 0.089 | -0.968 ± 0.12
UCGAAGCAAUAUUACGUCUA | 0.0685 ± 0.078 | 0.296 ± 0.077
UCGAAGCAAUAUUACGUGAG | -0.469 ± 0.053 | -0.72 ± 0.088
UCGAAGCAAUAUUACGUUUU | -3.28 ± 0.14 | -3.09 ± 0.29
UCGCAGCAAUAUUACGACCA | -1.83 ± 0.13 | -1.07 ± 0.14
UCGCAGCAAUAUUACGACGA | -1.67 ± 0.17 | -0.408 ± 0.14
UCGCAGCAAUAUUACGACUA | 0.0221 ± 0.14 | -0.0509 ± 0.14
UCGCAGCAAUAUUACGAUCG | -0.735 ± 0.092 | -0.359 ± 0.12
UCGCAGCAAUAUUACGCAUG | -3.79 ± 0.33 | -2.56 ± 0.27
UCGCAGCAAUAUUACGCCAU |  | -1.96 ± 0.4
UCGCAGCAAUAUUACGCCGA | -1.83 ± 0.19 | -2.26 ± 0.22
UCGCAGCAAUAUUACGCCUC |  | -2.36 ± 0.39
UCGCAGCAAUAUUACGCGUG | -3.34 ± 0.15 | -1.44 ± 0.14
UCGCAGCAAUAUUACGCUAU | -5.08 ± 0.36 | -3 ± 0.17
UCGCAGCAAUAUUACGGCAG | -0.619 ± 0.1 | -0.379 ± 0.11
UCGCAGCAAUAUUACGGCCG | -0.546 ± 0.12 | -0.522 ± 0.18
UCGCAGCAAUAUUACGGGCG | -2.7 ± 0.13 | -0.856 ± 0.12
UCGCAGCAAUAUUACGGGUG | -1.16 ± 0.053 | -1.03 ± 0.074
UCGCAGCAAUAUUACGGUAA | -0.786 ± 0.061 | -0.563 ± 0.071
UCGCAGCAAUAUUACGGUGA | -4.44 ± 0.46 | -2.45 ± 0.15

Sequence | self-splicing fitness (ln) (30 °C) | self-splicing fitness (ln) (37 °C)
UCGCAGCAAUAUUACGGUGU |  | -2.63 ± 0.24
UCGCAGCAAUAUUACGGUUG | -2.75 ± 0.1 | -1.47 ± 0.12
UCGCAGCAAUAUUACGUAAA | -1.69 ± 0.094 | -1.12 ± 0.12
UCGCAGCAAUAUUACGUAAU | -3.39 ± 0.15 | -2.19 ± 0.21
UCGGAGCAAUAUUACGAAGA |  | -2.3 ± 0.42
UCGGAGCAAUAUUACGAAGU |  | -0.529 ± 0.24
UCGGAGCAAUAUUACGACAC | -3.18 ± 0.48 | -1.19 ± 0.3
UCGGAGCAAUAUUACGAGAU |  | -1.51 ± 0.35
UCGGAGCAAUAUUACGAGCC | -2.93 ± 0.41 | 
UCGGAGCAAUAUUACGAGGA | -3.64 ± 0.4 | -0.618 ± 0.21
UCGGAGCAAUAUUACGCGCU |  | -2.3 ± 0.37
UCGGAGCAAUAUUACGCGGU | -3.14 ± 0.23 | -2.94 ± 0.43
UCGGAGCAAUAUUACGCUUG | -3.64 ± 0.27 | -2.83 ± 0.35
UCGGAGCAAUAUUACGGGAA |  | -2.08 ± 0.4
UCGGAGCAAUAUUACGGGCA | -2.38 ± 0.16 | -0.971 ± 0.13
UCGGAGCAAUAUUACGGUAA | -3.18 ± 0.21 | -1.68 ± 0.23
UCGGAGCAAUAUUACGUCCC | -1.39 ± 0.46 | 
UCGGAGCAAUAUUACGUGAA | -3.41 ± 0.39 | -1.63 ± 0.14
UCGGAGCAAUAUUACGUGGA | -1.28 ± 0.2 | -1.48 ± 0.18
UCGGAGCAAUAUUACGUUUC |  | -2.02 ± 0.43
UCGUAGCAAUAUUACGAACA | -2.55 ± 0.28 | -1.82 ± 0.2
UCGUAGCAAUAUUACGACUU | -2.7 ± 0.22 | -0.781 ± 0.17
UCGUAGCAAUAUUACGAGCA | -0.579 ± 0.3 | -1.13 ± 0.24
UCGUAGCAAUAUUACGAUUU | -3.1 ± 0.25 | -2.4 ± 0.24
UCGUAGCAAUAUUACGCAAC |  | -2.42 ± 0.48
UCGUAGCAAUAUUACGCAAG | -3.91 ± 0.35 | -2.12 ± 0.27
